Results: patent US20140342369A1

Key:
[1] = target: Solute carrier family 2, facilitated glucose transporter member 3 (Slc2a3) (mouse) (UniProt P32037); assay: anti-HA pulldown of tagged Gpr107 from whole cell lysate, mass spectrometry of eluted proteins
[2] = target: LYRIC (Mtdh, Metadherin) (mouse) (UniProt Q80WJ7); assay: as above
[3] = target: Neurabin-2, Spinophilin (Ppp1r9b) (mouse) (UniProt Q6R891); assay: as above
Calnexin (Canx1) (mouse) [4] = target: Calnexin (Canx1) (mouse) (UniProt P35564); assay: as above
[5] = target: Neurabin-1 (Ppp1r9a) (mouse) (UniProt Q7TN74); assay: as above
[6] = target: Dolichyl-diphosphooligosaccharide--protein glycosyltransferase SU 1 (Rpn1) (mouse) (UniProt Q91YQ5); assay: as above
[7] = target: Guanine nucleotide-binding protein G(i) subunit alpha-2 (Gnai2) (mouse) (UniProt P08752); assay: as above
[8] = target: Solute carrier family 2, facilitated glucose transporter member 3 (Slc2a3) (mouse) (UniProt P32037); assay: control pulldown (background; control not described), mass spectrometry of eluted proteins
[9] = target: LYRIC (Mtdh, Metadherin) (mouse) (UniProt Q80WJ7); assay: as above
[10] = target: Neurabin-2, Spinophilin (Ppp1r9b) (mouse) (UniProt Q6R891); assay: as above
Calnexin (Canx1) (mouse) [11] = target: Calnexin (Canx1) (mouse) (UniProt P35564); assay: as above
[12] = target: Neurabin-1 (Ppp1r9a) (mouse) (UniProt Q7TN74); assay: as above
[13] = target: Dolichyl-diphosphooligosaccharide--protein glycosyltransferase SU 1 (Rpn1) (mouse) (UniProt Q91YQ5); assay: as above
[14] = target: Guanine nucleotide-binding protein G(i) subunit alpha-2 (Gnai2) (mouse) (UniProt P08752); assay: as above

Sequence of UniProt P35564 (P35564 21-591 limits assumed): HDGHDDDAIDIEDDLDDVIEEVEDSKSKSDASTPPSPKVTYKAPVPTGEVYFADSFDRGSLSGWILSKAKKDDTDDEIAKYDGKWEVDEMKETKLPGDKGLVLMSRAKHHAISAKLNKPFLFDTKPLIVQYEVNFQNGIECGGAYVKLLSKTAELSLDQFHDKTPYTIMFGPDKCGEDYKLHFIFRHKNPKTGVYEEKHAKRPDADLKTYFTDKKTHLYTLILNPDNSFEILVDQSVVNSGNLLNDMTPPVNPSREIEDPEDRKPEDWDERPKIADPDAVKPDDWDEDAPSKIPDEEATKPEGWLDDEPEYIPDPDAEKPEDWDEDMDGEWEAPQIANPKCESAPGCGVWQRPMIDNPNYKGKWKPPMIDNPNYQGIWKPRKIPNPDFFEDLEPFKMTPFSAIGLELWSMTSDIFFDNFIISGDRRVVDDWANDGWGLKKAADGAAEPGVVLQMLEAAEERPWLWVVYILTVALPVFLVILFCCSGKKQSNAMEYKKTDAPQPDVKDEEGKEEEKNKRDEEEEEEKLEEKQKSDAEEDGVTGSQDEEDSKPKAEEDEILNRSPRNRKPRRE
Sequence of UniProt P32037 (P32037 whole entry): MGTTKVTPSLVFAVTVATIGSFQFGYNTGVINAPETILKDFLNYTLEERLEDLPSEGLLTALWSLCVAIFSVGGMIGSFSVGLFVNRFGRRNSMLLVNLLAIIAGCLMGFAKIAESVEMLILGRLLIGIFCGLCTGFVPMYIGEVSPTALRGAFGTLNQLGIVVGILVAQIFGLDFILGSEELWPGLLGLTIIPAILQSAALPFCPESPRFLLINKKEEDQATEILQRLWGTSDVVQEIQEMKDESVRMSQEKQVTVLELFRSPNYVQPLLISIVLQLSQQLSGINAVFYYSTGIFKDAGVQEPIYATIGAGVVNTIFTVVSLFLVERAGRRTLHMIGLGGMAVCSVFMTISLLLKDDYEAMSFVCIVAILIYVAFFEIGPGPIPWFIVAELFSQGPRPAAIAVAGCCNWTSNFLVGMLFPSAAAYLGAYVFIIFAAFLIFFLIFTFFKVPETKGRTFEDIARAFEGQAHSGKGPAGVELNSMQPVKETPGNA
Sequence of UniProt Q6R891 (Q6R891 whole entry): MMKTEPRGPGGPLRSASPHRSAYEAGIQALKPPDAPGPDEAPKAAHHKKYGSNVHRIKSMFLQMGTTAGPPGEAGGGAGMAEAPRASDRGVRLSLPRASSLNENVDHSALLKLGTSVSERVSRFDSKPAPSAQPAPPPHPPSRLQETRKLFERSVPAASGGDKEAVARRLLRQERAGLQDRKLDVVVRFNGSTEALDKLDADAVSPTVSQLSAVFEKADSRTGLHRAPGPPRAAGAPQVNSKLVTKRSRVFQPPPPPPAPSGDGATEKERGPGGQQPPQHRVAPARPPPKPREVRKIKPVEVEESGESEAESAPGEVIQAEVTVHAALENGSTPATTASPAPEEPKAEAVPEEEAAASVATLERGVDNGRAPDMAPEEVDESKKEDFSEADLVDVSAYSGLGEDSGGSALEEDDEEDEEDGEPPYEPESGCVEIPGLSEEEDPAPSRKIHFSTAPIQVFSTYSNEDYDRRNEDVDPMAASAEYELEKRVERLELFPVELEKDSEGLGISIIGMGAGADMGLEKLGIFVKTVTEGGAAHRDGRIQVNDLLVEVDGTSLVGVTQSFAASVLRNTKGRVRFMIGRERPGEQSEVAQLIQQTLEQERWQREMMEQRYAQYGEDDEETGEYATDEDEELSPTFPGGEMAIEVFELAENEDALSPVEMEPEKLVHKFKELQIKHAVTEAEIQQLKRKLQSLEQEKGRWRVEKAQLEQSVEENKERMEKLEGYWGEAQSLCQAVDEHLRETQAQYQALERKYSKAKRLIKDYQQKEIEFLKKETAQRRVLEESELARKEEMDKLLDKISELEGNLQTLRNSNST
Sequence of UniProt P08752 (P08752 2-355 limits assumed): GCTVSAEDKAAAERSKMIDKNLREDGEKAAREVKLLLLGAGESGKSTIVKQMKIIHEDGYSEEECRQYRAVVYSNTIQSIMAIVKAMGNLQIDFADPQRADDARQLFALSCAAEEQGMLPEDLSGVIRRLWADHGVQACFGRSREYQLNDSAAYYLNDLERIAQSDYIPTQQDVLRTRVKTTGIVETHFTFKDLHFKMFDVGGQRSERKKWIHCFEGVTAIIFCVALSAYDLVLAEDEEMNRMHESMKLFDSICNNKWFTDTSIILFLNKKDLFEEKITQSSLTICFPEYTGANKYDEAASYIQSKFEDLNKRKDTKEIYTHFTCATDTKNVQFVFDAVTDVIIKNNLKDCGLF
Sequence of UniProt Q80WJ7 (Q80WJ7 whole entry): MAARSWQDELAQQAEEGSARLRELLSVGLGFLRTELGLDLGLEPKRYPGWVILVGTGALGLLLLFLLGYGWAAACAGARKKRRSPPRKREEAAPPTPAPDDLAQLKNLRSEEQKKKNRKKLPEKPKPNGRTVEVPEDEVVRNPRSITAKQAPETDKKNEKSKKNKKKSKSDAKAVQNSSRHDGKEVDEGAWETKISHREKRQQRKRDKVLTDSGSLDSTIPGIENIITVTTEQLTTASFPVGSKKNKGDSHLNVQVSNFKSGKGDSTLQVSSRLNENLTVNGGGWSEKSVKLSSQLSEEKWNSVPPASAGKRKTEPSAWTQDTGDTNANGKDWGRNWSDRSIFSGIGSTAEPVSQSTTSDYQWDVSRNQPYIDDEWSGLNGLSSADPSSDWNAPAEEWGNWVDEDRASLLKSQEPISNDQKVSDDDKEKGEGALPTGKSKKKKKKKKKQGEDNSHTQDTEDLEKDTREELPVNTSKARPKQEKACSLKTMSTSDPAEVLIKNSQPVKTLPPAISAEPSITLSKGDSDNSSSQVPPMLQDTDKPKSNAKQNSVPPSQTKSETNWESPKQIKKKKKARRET
Sequence of UniProt Q7TN74 (Q7TN74 entry or part of it): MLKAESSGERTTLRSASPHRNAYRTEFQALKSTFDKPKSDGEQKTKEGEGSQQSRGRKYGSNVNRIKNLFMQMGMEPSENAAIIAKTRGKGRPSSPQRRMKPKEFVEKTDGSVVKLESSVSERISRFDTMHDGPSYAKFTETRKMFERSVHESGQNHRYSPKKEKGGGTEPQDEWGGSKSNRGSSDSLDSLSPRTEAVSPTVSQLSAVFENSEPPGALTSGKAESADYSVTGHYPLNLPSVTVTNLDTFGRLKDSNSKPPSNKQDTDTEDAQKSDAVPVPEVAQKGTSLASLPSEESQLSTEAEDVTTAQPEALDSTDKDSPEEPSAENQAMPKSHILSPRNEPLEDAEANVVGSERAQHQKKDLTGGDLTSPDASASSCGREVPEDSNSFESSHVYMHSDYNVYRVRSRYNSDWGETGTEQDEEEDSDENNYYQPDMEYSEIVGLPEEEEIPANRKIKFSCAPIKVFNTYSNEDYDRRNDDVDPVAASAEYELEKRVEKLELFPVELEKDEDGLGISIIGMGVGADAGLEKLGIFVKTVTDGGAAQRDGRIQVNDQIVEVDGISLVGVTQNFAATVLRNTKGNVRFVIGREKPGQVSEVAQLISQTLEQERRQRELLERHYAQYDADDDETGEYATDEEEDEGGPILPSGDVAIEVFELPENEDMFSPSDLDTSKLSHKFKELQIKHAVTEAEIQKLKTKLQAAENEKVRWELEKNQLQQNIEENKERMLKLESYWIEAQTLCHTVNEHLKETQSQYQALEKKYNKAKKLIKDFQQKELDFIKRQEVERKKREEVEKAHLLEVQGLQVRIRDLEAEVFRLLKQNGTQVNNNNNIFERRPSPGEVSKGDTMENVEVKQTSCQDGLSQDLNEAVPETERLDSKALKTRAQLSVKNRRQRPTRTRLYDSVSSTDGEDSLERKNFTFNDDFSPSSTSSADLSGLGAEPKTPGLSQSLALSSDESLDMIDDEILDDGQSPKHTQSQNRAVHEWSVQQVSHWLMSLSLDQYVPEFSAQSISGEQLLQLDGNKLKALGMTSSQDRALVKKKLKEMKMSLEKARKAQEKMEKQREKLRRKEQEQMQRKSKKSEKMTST
Sequence of UniProt Q91YQ5 (Q91YQ5 26-608 limits assumed): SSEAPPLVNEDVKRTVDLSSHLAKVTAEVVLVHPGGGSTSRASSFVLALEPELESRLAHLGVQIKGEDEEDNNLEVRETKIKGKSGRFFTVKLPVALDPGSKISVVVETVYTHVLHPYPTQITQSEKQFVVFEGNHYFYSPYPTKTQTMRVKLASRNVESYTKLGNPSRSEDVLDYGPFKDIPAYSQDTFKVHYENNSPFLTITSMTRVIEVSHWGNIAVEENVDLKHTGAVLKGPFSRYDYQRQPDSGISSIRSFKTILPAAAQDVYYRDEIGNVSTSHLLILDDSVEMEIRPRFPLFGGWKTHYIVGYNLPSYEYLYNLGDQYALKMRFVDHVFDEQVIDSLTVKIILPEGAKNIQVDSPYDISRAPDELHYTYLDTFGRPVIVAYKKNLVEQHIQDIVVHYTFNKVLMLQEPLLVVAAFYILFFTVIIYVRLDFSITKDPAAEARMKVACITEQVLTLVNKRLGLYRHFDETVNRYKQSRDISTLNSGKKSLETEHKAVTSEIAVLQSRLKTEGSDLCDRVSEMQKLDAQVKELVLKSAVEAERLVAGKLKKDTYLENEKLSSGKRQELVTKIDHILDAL

“C-terminally tagged (mCherry, Ha, myc) version of Gpr107 (G protein coupled receptor 107) (from UniProt Q8BUV8 34-551)” was tested, and the peptides sample [1] was 5 peptides, the peptides sample [2] was 46 peptides and the peptides sample [3] was 136 peptides. The peptides sample (Calnexin (Canx1) (mouse) [4]) was 7 peptides, the peptides sample [5] was 13 peptides and the peptides sample [6] was 8 peptides. It also gave a peptides sample [7] of 19 peptides, a peptides control [8] of 0 peptides and a peptides control [9] of 0 peptides. It also gave a peptides control [10] of 8 peptides, a peptides control (Calnexin (Canx1) (mouse) [11]) of 3 peptides and a peptides control [12] of 0 peptides. For the same substance, the peptides control [13] was 3 peptides and the peptides control [14] was 0 peptides.
